Measurements as given in the supplement of paper PMC10567573.
± gives the standard deviation.

Test: protein stability index of a GFP-peptide fusion (GPS, HEK-293T) (PSI 1-6); higher = more stable
[1] = treatment: DMSO, c terminus: a fixed tail appended
[2] = treatment: MLN4924 1 uM, 8 h, c terminus: a fixed tail appended
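Further: 24-mer peptide tiles fused after GFP, lentivirally expressed, FACS-sorted into six equal bins by GFP/DsRed ratio, decoded by Illumina sequencing, PSI is the read-weighted mean bin number.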

Sequence	protein stability index [1]	protein stability index [2]	protein stability index (treatment: DMSO, c terminus: native)	protein stability index (treatment: MLN4924 1 uM, 8 h, c terminus: native)
SSSFTSIASEWFLIANRSYKVSAA [SLC22A15]	2.26 ± 0.47	2.42 ± 0.31	–	–
LASDKTSAGNAPLNEEINIASSDS [C18orf25]	5.48 ± 0.17	5.46 ± 0.16	–	–
FSQLYLYSFISLFIYMVLSLFIAL [MCOLN1]	3.28 ± 0.21	3.24 ± 0.21	–	–
LTDVSPEPLQALLERASATLQDLV [PRAME]	3.05 ± 0.16	3.33 ± 0.6	–	–
AMPPYGQGPPMVPPYQGGPPRPPM [ZNF207]	3.79 ± 0.45	3.92 ± 0.2	–	–
TEDVNTLDSEKRTPLHVAAFLGDA [ANKRD44]	4.72 ± 0.3	4.74 ± 0.11	–	–
PSAAQTLRSFCAWQRGLNTPEDSD [ADAMTS4]	4.29 ± 0.25	4.53 ± 0.17	–	–
CGYEGCRYGCGHRGCGDGCCCPSC [KRTAP19-2]	3.72 ± 0.31	3.72 ± 0.39	–	–
HKADSIQGTARTLSPVLESPRDLQ [TNXB]	4.75 ± 0.18	4.9 ± 0.14	–	–
RKRIRTYLKSCRRMKKNGMEMTRP [NOL4L]	3.28 ± 0.21	3.32 ± 0.22	–	–
FSKASSSLQLVFGIELMEVDPIGH [MAGEA3]	2.62 ± 0.6	2.29 ± 0.46	–	–
KTLLAIGGWNFSTQKFTDMVATAN [CHIT1]	2.39 ± 0.34	2.14 ± 0.21	–	–
FRCPTCRHEVIMDRHGVYGLQRNL [TRIM63]	2.31 ± 0.3	2.83 ± 0.52	–	–
TVQEAATSRRARASKKTAQPWVEV [MFSD9]	3.22 ± 0.14	3.1 ± 0.25	–	–
NPTQNVRTILLSVISLLNEPNTFS [CDC34]	2.86 ± 0.54	2.95 ± 0.61	–	–
FGDSPKAEKRQIGDQEGPRPARST [FBF1]	5.11 ± 0.47	5.08 ± 0.36	–	–
SRPNGTSAMLLVTLGKVLKVIVVM [MED27]	2.88 ± 0.46	2.93 ± 0.68	–	–
LTQTMHDLAGLGSETPKSQVGTLL [CDC25B]	3.39 ± 0.42	3.62 ± 0.22	–	–
DFPEDGLKIFTEDLPEVESLPRDR [VPS39]	5.31 ± 0.31	5.39 ± 0.068	–	–
YVEVKEGKTWKQICDKHWTAKNSR [LOXL2]	2.62 ± 0.8	3.28 ± 0.61	–	–
EEHESGIEQFSESHAIHVEEQSDQ [IQUB]	5.61 ± 0.12	5.56 ± 0.11	–	–
AEGTPRSNHSAQDSAVENLLLLSK [IKZF1]	4.67 ± 0.41	4.86 ± 0.95	–	–

Sequence	protein stability index [1]	protein stability index [2]	protein stability index (treatment: DMSO, c terminus: native)	protein stability index (treatment: MLN4924 1 uM, 8 h, c terminus: native)
HMEEEVEDFLLKKPIVPTDGKRVI [CDC25A]	4.68 ± 0.096	4.84 ± 0.24	–	–
LLQADREHLPVKPDTMEKLRTHID [DENND6A]	3.86 ± 0.36	3.92 ± 0.12	–	–
MCDAFVGTWKLVSSENFDDYMKEV [FABP4]	2.55 ± 0.44	2.42 ± 0.46	–	–
DKLGELSDKIGSTIDDTISKFRRK [CLINT1]	3.32 ± 0.58	3.4 ± 0.39	–	–
AAAPVAEVPTAAGALTPTPAPTTT [CLPTM1]	5.3 ± 0.34	5.25 ± 0.097	–	–
VSATKAEAEKDGVKVPTTLAEYCI [UBE2R2]	4.5 ± 0.33	4.5 ± 0.28	–	–
KIVEFNPMVLKGKIRPDSSRPELL [GLT8D2]	3.09 ± 0.36	3.35 ± 0.39	–	–
VITLDPQTASRSLVLSEDRKSVRY [TRIM15]	3.44 ± 0.2	3.64 ± 0.14	–	–
SMHKYQPRLHIVKADENNGFGSKN [TBX5]	3.94 ± 0.4	4.24 ± 0.33	–	–
GSMVEIAKQLQAVKRKIRDESLCP [TRIM39]	3.09 ± 0.24	3.15 ± 0.24	–	–
RPISGTAVAHKTPRCPGSVNEKLP [SMOC2]	4.53 ± 0.14	4.59 ± 0.26	–	–
NYQAHQSRVTMILFVLELEWVLST [WDFY2]	3.1 ± 0.08	2.89 ± 0.67	–	–
CAYRTHLVAGIGFYQHLLLYIQSH [SMG5]	3.01 ± 0.63	3.34 ± 0.87	–	–
VRNNRSIIKQLKDVFERDWYSPYA [PLD5]	2.41 ± 0.54	2.41 ± 0.21	–	–
AACTRALESSEELLETANQTLQAM [FSD1]	5.14 ± 0.16	4.84 ± 0.38	–	–
SCAWSLNIQANNCFSTGLSRRVLL [DCAF4]	3.38 ± 0.47	2.35 ± 0.38	–	–
YKKAVGLKLKQEKKEAYLKLKQG [WDR88]	–	–	2.81 ± 0.4	3.13 ± 0.3
GGKIIMPPSALDQLSRLNITYPML [UFD1]	2.16 ± 0.089	2.28 ± 0.2	–	–
TKRSTLIISGVSKVPIAQDELALS [C2CD2L]	3.16 ± 0.17	3.14 ± 0.19	–	–
IKQLRSGGTPIRGALQIEQSEESD [PTPRD]	4.98 ± 0.36	5.15 ± 0.21	–	–
SLDKRQGEGLRIYWGSPEEQSLLS [TPRG1]	2.77 ± 0.15	2.85 ± 0.39	–	–
PAYATTRIRSQIGNTESELKKLAE [GDAP1]	4.53 ± 0.095	4.53 ± 0.18	–	–

Sequence	protein stability index [1]	protein stability index [2]	protein stability index (treatment: DMSO, c terminus: native)	protein stability index (treatment: MLN4924 1 uM, 8 h, c terminus: native)
GAGDWREKEAKDLTELVQRRITYL [FUT8]	3.61 ± 0.27	3.31 ± 0.3	–	–
RYRQAGSSGPGNSQNSFLVQEVME [RPAIN]	4.17 ± 0.23	3.82 ± 0.28	–	–
PEAVDEDRSTEPDRLQVFHKRAIM [ATE1]	4.8 ± 0.23	4.91 ± 0.12	–	–
KRNFISSKSKQPAGHRRPAGGIRE [C22orf31]	4.07 ± 0.11	3.99 ± 0.22	–	–
NGITQGDKLRALKSQRQPRTSPSC [CDC14A]	4.16 ± 0.19	4.14 ± 0.071	–	–
LYLCPNGARCATWFQDPTRFTGTM [SLC25A39]	2.82 ± 0.64	2.7 ± 0.63	–	–
RMQYAPDLMKRLRFALIPAPELVE [KLHL14]	2.25 ± 0.1	2.05 ± 0.088	–	–
VPPGVVNIVFGTGPRVGEALVSHP [ALDH8A1]	2.21 ± 0.36	2.27 ± 0.35	–	–
MQATADSTKMDCVWSNWKSQAIDL [RTN1]	3.17 ± 0.11	3.41 ± 0.36	–	–
QRTHTGEKPYKCPECGEIFAHSSN [ZNF263]	3.6 ± 0.37	4.07 ± 0.47	–	–
VSRRLSPRKVSTCTDHELENHSMY [TRIM9]	3.7 ± 0.22	3.77 ± 0.19	–	–
REEEEKTPPETKPDPPVNFLRQKV [PCMTD2]	5.34 ± 0.26	5.29 ± 0.087	–	–
IAIPEWFLSENATVAAETRAVIAW [CPXM2]	2.24 ± 0.25	2.08 ± 0.14	–	–
RDLASVPPELTASRQSFRMAMGNP [DVL3]	3.75 ± 0.32	3.81 ± 0.13	–	–
LRAELTKVEEEIVTLRQVLAAKER [TPD52L2]	2.93 ± 0.31	3.45 ± 0.3	–	–
QTVFQKKNLQQTTNTTSTQMTNIG [IQUB]	4.08 ± 0.2	4.28 ± 0.27	–	–
ITLLILAELLIFSVPIVYEKYKTQ [RTN3]	3.41 ± 0.32	3.4 ± 0.94	–	–
LAATQGLAHMIAECKKLFQVPEEM [DLC1]	2.52 ± 0.33	2.47 ± 0.37	–	–
ARGTGSGEDSSTSSSTPLEDEEPQ [RTN2]	5.7 ± 0.15	5.62 ± 0.24	–	–
SETLEQKPHFESSTVKTETISFGS [EPB41L3]	5.19 ± 0.073	4.95 ± 0.34	–	–
GRGPPSEPVLTQTSEQAPSSAPRD [PTPRD]	5.74 ± 0.22	5.34 ± 0.31	–	–
